Tests used:
FAC binding constant = conditions: at 25° C.
Experimental: (§1) Details of the FAC method are described in Patent Document 2 filed by some of the present applicants, for example.
(§2) Binding constants (at 25° C.) of PhoSL, SRL, NSL and LSL belonging to the fucose α1→6 specific lectin for various sugar chains are shown in Tables 2 to 5.

[1] = FAC binding constant (Table 5 entry); conditions: Table 5: sugar chain having no fucose; at 25° C.
Experimental: as §1, §2

[2] = Binding to sugar chains, summary of Tables 2 to 5
Experimental: as §1, §2
The AAL and AOL bind to the fucose α1→6 sugar chains (sugar chains No. 015, 201 to 203, and 401 to 418), as well as to the glycolipid-type sugar chain excluding the fucose α1→6 (sugar chains No. 718, 722, 723, 727, 909, 910 and 933). The LCL and PSL bind to the fucose α1→6 sugar chain, as well as to sugar chain excluding the α1→6 fucose (sugar chains No. 003, and 005 to 014).
Furthermore, the binding constant of the fucose α1→6 specific lectin is not decreased even if a sialic acid is added to the fucose α1→6 sugar chain (sugar chains No. 601 and 602). In addition, the fucose α1→6 specific lectin also strongly binds to the triple-strand (sugar chains No. 407 to 413) and the four-strand (sugar chains No. 418) of the fucose uα1→6 sugar chain.

[3] = sugar chain having fucose other than α1→6 fucose

B1: PSL: Pisum sativum lectin, affinity for fucose α1→6 but not specific (protein, UniProt P02867 31-217; P02867 218-275, looked up)
Lectin beta chain: TETTSFLITKFSPDQQNLIFQGDGYTTKEKLTLTKAVKNTVGRALYSSPIHIWDRETGNVANFVTSFTFVINAPNSYNVADGFTFFIAPVDTKPQTGGGYLGVFNSAEYDKTTQTVAVEFDTFYNAAWDPSNRDRHIGIDVNSIKSVNTKSWKLQNGEEANVVIAFNAATNVLTVSLTYPNSLEEEN
Lectin alpha chain: VTSYTLSDVVSLKDVVPEWVRIGFSATTGAEYAAHEVLSWSFHSELSGTSSSKQAADA
- Binding constant for sugar chain No. 728 (FAC binding constant; Table 3: sugar chain having fucose other than α1→6 fucose): <1000 M⁻¹
- Binding constant for sugar chain No. 419 (FAC binding constant; [3]): <1000 M⁻¹
- Binding constant for sugar chain No. 420 (FAC binding constant; [3]): <1000 M⁻¹
- Binding constant for sugar chain No. 718 (FAC binding constant; [3]): <1000 M⁻¹
- Binding constant for sugar chain No. 719 (FAC binding constant; [3]): <1000 M⁻¹
- Binding constant for sugar chain No. 720 (FAC binding constant; [3]): <1000 M⁻¹
- Binding constant for sugar chain No. 721 (FAC binding constant; [3]): <1000 M⁻¹
- Binding constant for sugar chain No. 722 (FAC binding constant; [3]): <1000 M⁻¹
- Binding constant for sugar chain No. 723 (FAC binding constant; [3]): <1000 M⁻¹
- Binding constant for sugar chain No. 726 (FAC binding constant; [3]): <1000 M⁻¹
- Binding constant for sugar chain No. 727 (FAC binding constant; [3]): <1000 M⁻¹
- Binding constant for sugar chain No. 729 (FAC binding constant; [3]): <1000 M⁻¹
- Binding constant for sugar chain No. 730 (FAC binding constant; [3]): <1000 M⁻¹
- Binding constant for sugar chain No. 731 (FAC binding constant; [3]): <1000 M⁻¹
- Binding constant for sugar chain No. 739 (FAC binding constant; [3]): <1000 M⁻¹
- Binding constant for sugar chain No. 909 (FAC binding constant; [3]): <1000 M⁻¹
- Binding constant for sugar chain No. 910 (FAC binding constant; [3]): <1000 M⁻¹
- Binding constant for sugar chain No. 931 (FAC binding constant; [3]): <1000 M⁻¹
- Binding constant for sugar chain No. 932 (FAC binding constant; [3]): <1000 M⁻¹
- Binding constant for sugar chain No. 933 (FAC binding constant; [3]): <1000 M⁻¹
- Binding constant for sugar chain No. 001 (FAC binding constant; sugar chain having no fucose): <1000 M⁻¹
- Binding constant for sugar chain No. 002 (FAC binding constant; sugar chain having no fucose): <1000 M⁻¹
- Binding constant for sugar chain No. 003 (FAC binding constant; sugar chain having no fucose): 7800 M⁻¹
- Binding constant for sugar chain No. 004 (FAC binding constant; sugar chain having no fucose): <1000 M⁻¹
- Binding constant for sugar chain No. 005 (FAC binding constant; sugar chain having no fucose): 7400 M⁻¹
- Binding constant for sugar chain No. 006 (FAC binding constant; sugar chain having no fucose): 7100 M⁻¹
- Binding constant for sugar chain No. 007 (FAC binding constant; sugar chain having no fucose): 7800 M⁻¹
- Binding constant for sugar chain No. 008 (FAC binding constant; sugar chain having no fucose): 10000 M⁻¹
- Binding constant for sugar chain No. 009 (FAC binding constant; sugar chain having no fucose): 7900 M⁻¹
- Binding constant for sugar chain No. 010 (FAC binding constant; sugar chain having no fucose): <1000 M⁻¹
- Binding constant for sugar chain No. 011 (FAC binding constant; sugar chain having no fucose): <1000 M⁻¹
- Binding constant for sugar chain No. 012 (FAC binding constant; sugar chain having no fucose): 17000 M⁻¹
- Binding constant for sugar chain No. 013 (FAC binding constant; sugar chain having no fucose): <1000 M⁻¹
- Binding constant for sugar chain No. 014 (FAC binding constant; sugar chain having no fucose): 8600 M⁻¹
- Binding constant for sugar chain No. 101 (FAC binding constant; sugar chain having no fucose): <1000 M⁻¹
- Binding constant for sugar chain No. 103 (FAC binding constant; sugar chain having no fucose): <1000 M⁻¹
- Binding constant for sugar chain No. 104 (FAC binding constant; sugar chain having no fucose): <1000 M⁻¹
- Binding constant for sugar chain No. 105 (FAC binding constant; sugar chain having no fucose): <1000 M⁻¹
- Binding constant for sugar chain No. 107 (FAC binding constant; sugar chain having no fucose): <1000 M⁻¹
- Binding constant for sugar chain No. 108 (FAC binding constant; sugar chain having no fucose): <1000 M⁻¹
- Binding constant for sugar chain No. 301 (FAC binding constant; sugar chain having no fucose): <1000 M⁻¹
- Binding constant for sugar chain No. 304 (FAC binding constant; sugar chain having no fucose): <1000 M⁻¹
- Binding constant for sugar chain No. 305 (FAC binding constant; sugar chain having no fucose): <1000 M⁻¹
- Binding constant for sugar chain No. 307 (FAC binding constant; sugar chain having no fucose): 2400 M⁻¹
- Binding constant for sugar chain No. 308 (FAC binding constant; sugar chain having no fucose): <1000 M⁻¹
- Binding constant for sugar chain No. 313 (FAC binding constant; sugar chain having no fucose): <1000 M⁻¹
- Binding constant for sugar chain No. 314 (FAC binding constant; sugar chain having no fucose): <1000 M⁻¹
- Binding constant for sugar chain No. 323 (FAC binding constant; sugar chain having no fucose): <1000 M⁻¹
- Binding constant for sugar chain No. 501 (FAC binding constant; sugar chain having no fucose): <1000 M⁻¹
- Binding constant for sugar chain No. 502 (FAC binding constant; sugar chain having no fucose): <1000 M⁻¹
- Binding constant for sugar chain No. 503 (FAC binding constant; sugar chain having no fucose): <1000 M⁻¹
- Binding constant for sugar chain No. 504 (FAC binding constant; sugar chain having no fucose): <1000 M⁻¹
- Binding constant for sugar chain No. 701 (FAC binding constant; sugar chain having no fucose): <1000 M⁻¹
- Binding constant for sugar chain No. 702 (FAC binding constant; sugar chain having no fucose): <1000 M⁻¹
- Binding constant for sugar chain No. 703 (FAC binding constant; sugar chain having no fucose): <1000 M⁻¹
- Binding constant for sugar chain No. 704 (FAC binding constant; sugar chain having no fucose): <1000 M⁻¹
- Binding constant for sugar chain No. 705 (FAC binding constant; sugar chain having no fucose): <1000 M⁻¹
- Binding constant for sugar chain No. 706 (FAC binding constant; sugar chain having no fucose): <1000 M⁻¹
- Binding constant for sugar chain No. 707 (FAC binding constant; sugar chain having no fucose): <1000 M⁻¹
- Binding constant for sugar chain No. 708 (FAC binding constant; sugar chain having no fucose): <1000 M⁻¹
- Binding constant for sugar chain No. 709 (FAC binding constant; sugar chain having no fucose): <1000 M⁻¹
- Binding constant for sugar chain No. 710 (FAC binding constant; sugar chain having no fucose): <1000 M⁻¹
- Binding constant for sugar chain No. 711 (FAC binding constant; sugar chain having no fucose): <1000 M⁻¹
- Binding constant for sugar chain No. 712 (FAC binding constant; sugar chain having no fucose): <1000 M⁻¹
- Binding constant for sugar chain No. 713 (FAC binding constant; sugar chain having no fucose): <1000 M⁻¹
- Binding constant for sugar chain No. 715 (FAC binding constant; sugar chain having no fucose): <1000 M⁻¹
- Binding constant for sugar chain No. 716 (FAC binding constant; sugar chain having no fucose): <1000 M⁻¹
- Binding constant for sugar chain No. 717 (FAC binding constant; sugar chain having no fucose): <1000 M⁻¹
- Binding constant for sugar chain No. 724 (FAC binding constant; sugar chain having no fucose): <1000 M⁻¹
- Binding constant for sugar chain No. 725 (FAC binding constant; sugar chain having no fucose): <1000 M⁻¹
- Binding constant for sugar chain No. 732 (FAC binding constant; sugar chain having no fucose): <1000 M⁻¹
- Binding constant for sugar chain No. 733 (FAC binding constant; sugar chain having no fucose): <1000 M⁻¹
- Binding constant for sugar chain No. 734 (FAC binding constant; sugar chain having no fucose): <1000 M⁻¹
- Binding constant for sugar chain No. 735 (FAC binding constant; sugar chain having no fucose): <1000 M⁻¹
- Binding constant for sugar chain No. 736 (FAC binding constant; sugar chain having no fucose): <1000 M⁻¹
- Binding constant for sugar chain No. 737 (FAC binding constant; sugar chain having no fucose): <1000 M⁻¹
- Binding constant for sugar chain No. 738 (FAC binding constant; sugar chain having no fucose): <1000 M⁻¹
- Binding constant for sugar chain No. 901 (FAC binding constant; sugar chain having no fucose): <1000 M⁻¹
- Binding constant for sugar chain No. 902 (FAC binding constant; sugar chain having no fucose): <1000 M⁻¹
- Binding constant for sugar chain No. 903 (FAC binding constant; sugar chain having no fucose): <1000 M⁻¹
- Binding constant for sugar chain No. 905 (FAC binding constant; sugar chain having no fucose): <1000 M⁻¹
- Binding constant for sugar chain No. 906 (FAC binding constant; sugar chain having no fucose): <1000 M⁻¹
- Binding constant for sugar chain No. 907 (FAC binding constant; sugar chain having no fucose): <1000 M⁻¹
- Binding constant for sugar chain No. 015 (FAC binding constant; sugar chain having α1→6 fucose): 120000 M⁻¹
- Binding constant for sugar chain No. 201 (FAC binding constant; sugar chain having α1→6 fucose): 100000 M⁻¹
- Binding constant for sugar chain No. 202 (FAC binding constant; sugar chain having α1→6 fucose): 44000 M⁻¹
- Binding constant for sugar chain No. 203 (FAC binding constant; sugar chain having α1→6 fucose): 25000 M⁻¹
- Binding constant for sugar chain No. 401 (FAC binding constant; sugar chain having α1→6 fucose): 92000 M⁻¹
- Binding constant for sugar chain No. 402 (FAC binding constant; sugar chain having α1→6 fucose): 48000 M⁻¹
- Binding constant for sugar chain No. 403 (FAC binding constant; sugar chain having α1→6 fucose): 38000 M⁻¹
- Binding constant for sugar chain No. 404 (FAC binding constant; sugar chain having α1→6 fucose): 45000 M⁻¹
- Binding constant for sugar chain No. 405 (FAC binding constant; sugar chain having α1→6 fucose): 36000 M⁻¹
- Binding constant for sugar chain No. 406 (FAC binding constant; sugar chain having α1→6 fucose): 13000 M⁻¹
- Binding constant for sugar chain No. 407 (FAC binding constant; sugar chain having α1→6 fucose): <1000 M⁻¹
- Binding constant for sugar chain No. 410 (FAC binding constant; sugar chain having α1→6 fucose): <1000 M⁻¹
- Binding constant for sugar chain No. 413 (FAC binding constant; sugar chain having α1→6 fucose): <1000 M⁻¹
- Binding constant for sugar chain No. 418 (FAC binding constant; sugar chain having α1→6 fucose): <1000 M⁻¹
- Binding constant for sugar chain No. 601 (FAC binding constant; sugar chain having α1→6 fucose): 31000 M⁻¹
- Binding constant for sugar chain No. 602 (FAC binding constant; sugar chain having α1→6 fucose): 29000 M⁻¹
- Binding constant for sugar chain No. 728 [1]: <1000 M⁻¹
- binding to sugar chain excluding the α1→6 fucose (in words) ([2]; sugar chains No. 003, and 005 to 014 for LCL and PSL): bind
- binding to the fucose α1→6 sugar chains (in words) ([2]; sugar chains No. 015, 201 to 203, and 401 to 418): bind

— patent US20200264182A1, “METHOD FOR DETECTING PROSTATE CANCER” (J-OIL MILLS, INC., priority 2017, published 2020)
